Data on one molecule can be found in patent US11999771B2, “IL-7Rαγc ligand immunoglobulin fusion proteins” (MEDIKINE, INC., priority 2022, dated 2024).

This data set can be described thus: Pharmacokinetics of the IL-7Rαγc IgG2-Fc fusion protein in non-human primates (serum level quantified by TF-1-7Rα STAT5 phosphorylation bioassay). The class given is in vivo. The following applies: single dose of 1 mg/kg. How it is done: A pharmacokinetic study of an IL-7Rαγc IgG2-Fc fusion protein was performed in non-human primates. The IL-7Rαγc IgG2-Fc fusion having SEQ ID NO: 45 was administered intravenously (IV), subcutaneously (SC), or intramuscularly (IM) with a single dose of 1 mg/kg into each non-human primate (n=10). Blood samples were collected at times post-dose into serum separator vials. Samples were centrifuged at 10,000× g for 5 min at 4° C. followed by transferring the serum to a new tube. Samples were frozen and stored at −80° C. prior to testing.
The TF-1-7Rα STAT5 phosphorylation bioassay was used to quantity the amount of the IL-7Rαγc IgG2-Fc fusion in each of the serum samples. Three-fold serial dilutions of each serum sample or a compound reference standard in starvation media were added to the cells and incubated for 30 mins with the cells. Cells extracts were prepared and the quantity of phosphorylated STAT5 was determined as described in Example 3. The IL-7Rαγc IgG2-Fc fusion protein concentration in each serum sample was calculated using a standard curve generated from the reference standard.

B1: hu-IgG2-Fc-(GS)10GG-IL-7Raγc (protein)
chain: ERKSSVECPPCPAPPVAGPSVFLFPPKPKDTLMISRTPEVTCVVVDVSHEDPEVQFNWYVDGVEVHNAKTKPREEQFNSTFRVVSVLTVVHQDWLNGKEYKCKVSNKGLPAPIEKTISKTKGQPREPQVYTLPPSREEMTKNQVSLTCLVKGFYPSDIAVEWESNGQPENNYKTTPPMLDSDGSFFLYSKLTVDKSRWQQGNVFSCSVMHEALHNHYTQKSLSLSPGAGSGSGSGSGSGSGSGSGSGSGGGWGIPWCTLDPGSLQCAWLGKHGGGGSGGVVCQDWEGVELCWQGG
notes: IL-7R agonist
For B1, the “bioavailability % F for IM administration” value (intramuscular vs intravenous) amounted to 117%. Moreover, the “bioavailability % F for SC administration” value (subcutaneous vs intravenous) was 112%.
